The values below come from patent US20240043859A1, “HERBICIDE-RESISTANT PROTEIN, AND GENE AND USE THEREOF” (QINGDAO KINGAGROOT CHEMICAL COMPOUND CO., LTD., priority 2020, published 2024).

“Also recorded” adds a separate entry of the source.

The subject of series [1] is Arabidopsis thaliana. The experiment in a line: Herbicide resistance of transgenic Arabidopsis thaliana seedlings on plate medium (root growth). The class given is in vivo. The settings on record: Arabidopsis overexpressing the gene. The procedure, abridged: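 After 3 days of cold treatment at 4 °C, seeds were cultured at 22 °C under a 16 h/8 h light cycle on MS herbicide medium (0.3 μM 2,4-D in the screen). Root growth was scored against wild-type seedlings at one week. The material was T2 AAD-overexpressing lines (AtUbi10 promoter, MAS terminator, hygromycin marker), two events each, tested with 2,4-D, 2,4-DB sodium and MCPA.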

Series [2] can be described thus: Chromogenic reaction of degrading herbicides in bacteria: triclopyr. The class given is cell-based, Escherichia coli. The settings on record: recombinant E. coli expressing the gene.
Series [3] in a line: Chromogenic reaction of degrading herbicides in bacteria: 2,4-D. The format is cell-based, Escherichia coli. The settings on record: recombinant E. coli expressing the gene, 2,4-D added to the medium, red = phenols. Summed up:
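Colour from 2,4-D degradation was detected at A510 after 5 min at room temperature, with 4-aminoantipyrine and ferricyanide added to culture supernatant in pH 10 borate. Cultures were AAD12-expressing or empty-vector (pET15b) BL21(DE3), grown overnight at 28 °C with 0.5 mM 2,4-D, 0.1 mM IPTG and 2 mM α-ketoglutarate.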

Series [4] deals with Arabidopsis thaliana. Briefly: Herbicide resistance of transgenic Arabidopsis thaliana seedlings on plate medium (root growth). The format is in vivo. As to conditions: plate medium with 2,4-D (0.3 μmol).
The format of series [5] is cell-based, Escherichia coli.

B1: QYD48: AAD-like enzyme, SEQ ID NO. 95 (protein)
chain: MTDRLEIKPLDATFGAVVTGIRLAEIDEPTWRELHATWLKYALLVFPGQHLQRDQQIAFAKRFGPLEFEMAAISNVKSDGTLRIEEDNDDMMKILKGNMGWHADSTYMPVQAKGAVFSAEEVPTIGGQTGWADMRAAYDALDEARKAQIESLQAYHSLHYSQSQLGHQTGKSDGEYSGYGLHDGPVPLRPLVKTHPETGRKSLLIGRHAHNIPGMDRDEARRLLEGLIDFACQPPRIYHHDWAAGDAVVWDNRCLLHQATPWDMTQRRIMWHSRIAGDPASESALAA
modifications: Synthetic polypeptide, QYD48, D48
As for B1, the “Resistance of transgenic Arabidopsis thaliana: 2,4-D” value in the series with Arabidopsis thaliana [1] is on record as “Yes”. Also, the “Resistance of transgenic Arabidopsis thaliana: MCPA” value in the series on Arabidopsis thaliana [1] is given as “Yes”. Further, the “Chromogenic reaction of degrading herbicides in bacteria: Triclopyr” value is given as “Yes” in series [2] and “slight degradation” in series [2] (listed as D48). Moreover, the entries for the “Chromogenic reaction of degrading herbicides in bacteria: 2,4-D” value in series [3] and in series [3] (listed as D48) were “Yes” and “could degrade 2,4-D; also recorded: capable of degrading 2,4-D”, respectively. Besides, the “2,4-D resistance of T1 generation transgenic seedlings (seminal root growth)” value in the series with Arabidopsis thaliana [4] is recorded as “showing tolerance to 2,4-D”. For the same molecule, the “Chromogenic reaction of degrading herbicides in bacteria: MCPA” value in series [5] is given as “Yes”.
